From patent US20230192897A1 (NUMAB THERAPEUTICS, published 2023)

B1: PRO1479 (other)
chain: DIQMTQSPASLSASVGDRVTITCQASQSIGTYLAWYQQKPGKPPKLLIYRAFILASGVPSRFSGSGSGTDFTLTISSLQPEDFATYYCQSNFYSDSTTIGPNAFGTGTKVTVLGGGGGSEVQLVESGGGLVQPGGSLRLSCAASGFSFSNSYWICWVRQAPGKCLEWIGCTFVGSSDSTYYANWAKGRFTISRDNSKNTVYLQMNSLRAEDTAVYYCARHPSDAVYGYANNLWGQGTLVTVSSGGGGSGGGGSGGGGSGGGGSIQMTQSPSSLSASVGDRVTITCQASQSINNVLAWYQQKPGKAPKLLIYRASTLASGVPSRFSGSGSGTDFTLTISSLQPEDFATYYCQSSYGNYGDFGCGTKVTVLGGGGGSEVQLVESGGGLVQPGGSLRLSCAASGFSFNSDYWIYWVRQAPGKGLEWIASIYGGSSGNTQYASWAQGRFTISRDNSKNTVYLQMNSLRAEDTAVYFCARGYVDYGGATDLWGQGTLVTVSSGGGGSGGGGSIQMTQSPSSLSASVGDRVTITCQSSESVYSNNQLSWYQQKPGQPPKLLIYDASDLASGVPSRFSGSGSGTDFTLTISSLQPEDFATYYCAGGFSSSSDTAFGGGTKLTVLGGGGGSGGGGSGGGGSGGGGSEVQLVESGGGLVQPGGSLRLSCAASGFSLSSNAMGWVRQAPGKGLEYIGIISVGGFTYYASWAKGRFTISRDNSKNTVYLQMNSLRAEDTATYFCARDRHGGDSSGAFYLWGQGTLVTVSS
notes: trispecific scDb-scFv; also called 38-02-A04 sc13 scDb-i/37-20-B03 sc09.1 scDb-o/19-01-H04 sc03 scFv
B2: PRO1430 (other)
chain: DIQMTQSPSSLSASVGDRVTITCQASQSIGTYLAWYQQKPGKAPKLLIYRAFILASGVPSRFSGSGSGTDFTLTISSLQPEDFATYYCQSNFYSDSTTIGPNAFGTGTKVTVLGGGGGSEVQLVESGGGLVQPGGSLRLSCAASGFSFSNSYWICWVRQAPGKCLEWIGCTFVGSSDSTYYANWAKGRFTISRDNSKNTVYLQMNSLRAEDTAVYYCARHPSDAVYGYANNLWGQGTLVTVSSGGGGSGGGGSGGGGSGGGGSIQMTQSPSSLSASVGDRVTITCQASQSINNVLAWYQQKPGKAPKLLIYRASTLASGVPSRFSGSGSGTDFTLTISSLQPEDFATYYCQSSYGNYGDFGCGTKVTVLGGGGGSQVQLQESGPGLVKPSETLSLTCKVSGFSFNSDYWIYWIRQPPGKGLEWIGSIYGGSSGNTQYASWAQGRVTISVDSSKNQFSLKLSSVTAADTAVYYCARGYVDYGGATDLWGQGTLVTVSSGGGGSGGGGSIQMTQSPSSLSASVGDRVTITCQSSESVYSNNQLSWYQQKPGQPPKLLIYDASDLASGVPSRFSGSGSGTDFTLTISSLQPEDFATYYCAGGFSSSSDTAFGGGTKLTVLGGGGGSGGGGSGGGGSGGGGSEVQLVESGGGLVQPGGSLRLSCAASGFSLSSNAMGWVRQAPGKGLEYIGIISVGGFTYYASWAKGRFTISRDNSKNTVYLQMNSLRAEDTATYFCARDRHGGDSSGAFYLWGQGTLVTVSS
notes: trispecific scDb-scFv; also called 38-02-A04 sc13 scDb-i/37-20-B03 sc01 scDb-o/19-01-H04 sc03 scFv
B3: PRO1013 (scFv)
scFv: DIQMTQSPSSLSASVGDRVTITCQASQSIGTYLAWYQQKPGKAPKLLIYRAFILASGVPSRFSGSGSGTDFTLTISSLQPEDFATYYCQSNFYSDSTTIGPNAFGTGTKVTVLGGGGGSGGGGSGGGGSGGGGSQVQLVQSGAEVKKPGASVKVSCKASGFSFNSDYWIYWVRQAPGQGLEWMGSIYGGSSGNTQYASWAQGRVTMTRDTSISTAYMELSSLRSEDTAVYYCARGYVDYGGATDLWGQGTLVTVSS
notes: anti-PDL1 scFv; also called 37-20-B03 sc02 scFv; 37-20-B03 CDR, VH1
B4: PRO830 (scFv)
scFv: DIQMTQSPSSLSASVGDRVTITCQASQSINDYLAWYQQKPGKAPKLLIYKASTLASGVPSRFSGSGSGTDFTLTISSLQPEDFATYYCQQGYIITDIDNVFGTGTKVTVLGGGGGSGGGGSGGGGSGGGGSQVQLQESGPGLVKPSETLSLTCKVSGFSFSSGYDMCWIRQPPGKGLEWIGCVVAGSVDITYYASWAKGRVTISVDSSKNQFSLKLSSVTAADTAVYYCARKDAYSDAFNLWGQGTLVTVSS
notes: anti-PDL1 scFv; also called 33-03-G02 sc01 scFv; 33-03-G02 CDR
B5: PRO997 (scFv)
scFv: DIQMTQSPSSLSASVGDRVTITCQASQSIGTYLAWYQQKPGKAPKLLIYRAFILASGVPSRFSGSGSGTDFTLTISSLQPEDFATYYCQSNFYSDSTTIGPNAFGTGTKVTVLGGGGGSGGGGSGGGGSGGGGSQVQLQESGPGLVKPSETLSLTCKVSGFSFNSDYWIYWIRQPPGKGLEWIGSIYGGSSGNTQYASWAQGRVTISVDSSKNQFSLKLSSVTAADTAVYYCARGYVDYGGATDLWGQGTLVTVSS
notes: also called 37-20-B03 sc01 scFv; 37-20-B03 CDR

Key:
Fc tagged human PDL1 = biological target: T1, Fc tagged human PDL1 (human, UniProt Q9NZQ7 19-239); assay: SPR
T1 construct: Bought (Sino Biological, cat. 10084-H02H); captured on the SPR chip; also called PDL1-Fc chimeric protein
In short: (§1)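 Kinetics were fitted with a one-to-one Langmuir model to give apparent ka, kd and KD. Binders at 0.12-90 nM (three-fold series) flowed 3 min, with 10 min dissociation and 3 M MgCl₂ regeneration, on a Biacore T200.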

Fc tagged human CD137 = biological target: T2, Fc tagged human CD137 (human, UniProt Q07011 24-186); assay: SPR
T2 construct: also called CD137-Fc chimeric protein
In short: as §1

human PDL1 on cells = human PDL1 on cells (human, UniProt Q9NZQ7 19-290); assay: cell-based or functional assay
[1] = biological target: T3, CD137 on Jurkat NFkB reporter cells (human, UniProt Q07011 24-255); assay: cell-based or functional assay
[2] = biological target: T3, CD137 on Jurkat NFkB reporter cells; assay: cell-based or functional assay; remark: listed apart in the source
biotinylated human PDL1 [3] = biological target: T4, biotinylated human PDL1 (human, UniProt Q9NZQ7 19-238, limits assumed, biotinylated); assay: competition ELISA B7.1/PDL1
T4 construct: also called biotinylated PDL1
In short: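 IC₅₀ was derived by four-parameter logistic fitting of reference-subtracted A450/690 readings. The signal came from streptavidin-polyHRP40 (10 ng/ml) with a 6-minute TMB reaction detecting biotinylated PDL1 bound to the plate. Pre-mixed samples sat 1 h at RT before a 1.5 h plate incubation.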

biotinylated human PDL1 [4] = biological target: T4, biotinylated human PDL1; assay: competition ELISA PD-1/PDL1
human serum albumin = biological target: T5, human serum albumin (human, UniProt P02768 25-609); assay: SPR, SA coupled to chip, pH 5.5
T5 construct: Coupled directly to the CM5 chip; also called HSA; human SA
Procedure: Affinity of molecules to serum albumin (SA) of the different species was determined by SPR measurements using a Biacore T200 device (GE Healthcare). SA was directly coupled to a CM5 sensor chip (GE Healthcare) using amine coupling chemistry. […] The assay was run in a 1× PBS-Tween buffer at pH 5.5.

[5] = biological target: T6, cynomolgus PDL1-Fc chimeric protein (cynomolgus monkey, UniProt G7PSE7 19-239); assay: SPR
T6 construct: PDL1-Fc chimeric protein from different species captured on the chip
In short: as §1

Binder | Kd (Fc tagged human PDL1) [nM] | kon (Fc tagged human PDL1) [M⁻¹ s⁻¹] | Kd (Fc tagged human CD137) [nM] | koff (Fc tagged human CD137) [s⁻¹] | kon (Fc tagged human CD137) [M⁻¹ s⁻¹] | IC50 (ng/ml), NF-AT potency assay, +HSA (human PDL1 on cells) [ng/mL] | rel. IC50 (avelumab/test), +HSA (human PDL1 on cells) [fold] | IC50 (ng/ml) (EC50 in Table 16C), NFkB reporter, HCC827 + IFNg, 24 h, +HSA [1] [ng/mL] | rel. IC50 (PRO1186/test), 24 h [1] [fold] | Area under the curve (calculated using PRO885 normalized data), first line (6 h by the order of the upper part) [2] | Area under the curve (calculated using PRO885 normalized data), second line (24 h by the order of the upper part) [2] | IC50 (biotinylated human PDL1 [3]) [ng/mL] | rel. IC50 (IC50 avelumab/IC50 test) (biotinylated human PDL1 [3]) [fold] | IC50 (biotinylated human PDL1 [4]) [ng/mL] | rel. IC50 (IC50 avelumab/IC50 test) (biotinylated human PDL1 [4]) [fold] | koff (Fc tagged human PDL1) [s⁻¹] | koff [5] [s⁻¹] | kon [5] [M⁻¹ s⁻¹] | IC50 (ng/ml), NF-AT potency assay (human PDL1 on cells) [ng/mL] | rel. IC50 (avelumab/test) (human PDL1 on cells) [fold] | further results
B1 | 0.0092 | 4.2e+06 | 1.7 | 0.00054 | 330000 | 50.4 | 1.04 | 7.61 | 0.87 | 191 | 207 | 10.7 | 1.38 | 2.65 | 0.86 | – | – | – | – | – | EC50 [ng/ml], NF-kB reporter, HCC827 + IFNg, +HSA, 6 h [2]: 7.38 ng/mL; IC10/EC90 ratio, first line (6 h by the order of the upper part) [2]: 81.9; IC10/EC90 ratio, second line (24 h by the order of the upper part) [2]: 523; Maximum NF-kB activation (rel. to PRO1186) [%], first line (6 h by the order of the upper part) [2]: 108%; Maximum NF-kB activation (rel. to PRO1186) [%], second line (24 h by the order of the upper part) [2]: 119%; rel. Area under the curve (AUCsample/AUCPRO1186), first line (6 h by the order of the upper part) [2]: 1.11 fold; rel. Area under the curve (AUCsample/AUCPRO1186), second line (24 h by the order of the upper part) [2]: 1.37 fold; rel. EC50 (EC50, PRO1186/EC50, sample), NF-kB reporter, 6 h [2]: 1.74 fold; rel. EC50 (EC50, PRO1186/EC50, sample), NF-kB reporter, 24 h [2]: 0.87 fold; rel. IC10/EC90 (ratio of sample/ratio of PRO1186), first line (6 h by the order of the upper part) [2]: 0.25 fold; rel. IC10/EC90 (ratio of sample/ratio of PRO1186), second line (24 h by the order of the upper part) [2]: 1.66 fold; Kd (human serum albumin): 0.976 nM
B2 | 0.0045 | – | 1.5 | 0.00071 | 460000 | 16.2 | 1.45 | 4.42 | 1.51 | 196 | 180 | 2.42 | 1.15 | 1.92 | 0.73 | – | – | – | – | – | EC50 [ng/ml], NF-kB reporter, HCC827 + IFNg, +HSA, 6 h [2]: 9.8 ng/mL; IC10/EC90 ratio, first line (6 h by the order of the upper part) [2]: 72.4; IC10/EC90 ratio, second line (24 h by the order of the upper part) [2]: 1240; Maximum NF-kB activation (rel. to PRO1186) [%], first line (6 h by the order of the upper part) [2]: 110%; Maximum NF-kB activation (rel. to PRO1186) [%], second line (24 h by the order of the upper part) [2]: 98.6%; rel. Area under the curve (AUCsample/AUCPRO1186), first line (6 h by the order of the upper part) [2]: 1.03 fold; rel. Area under the curve (AUCsample/AUCPRO1186), second line (24 h by the order of the upper part) [2]: 0.87 fold; rel. EC50 (EC50, PRO1186/EC50, sample), NF-kB reporter, 6 h [2]: 1.31 fold; rel. EC50 (EC50, PRO1186/EC50, sample), NF-kB reporter, 24 h [2]: 1.51 fold; rel. IC10/EC90 (ratio of sample/ratio of PRO1186), first line (6 h by the order of the upper part) [2]: 0.22 fold; rel. IC10/EC90 (ratio of sample/ratio of PRO1186), second line (24 h by the order of the upper part) [2]: 3.94 fold; Kd (human serum albumin): 1 nM; koff (human serum albumin): 0.0003 s⁻¹; kon (human serum albumin): 290000 M⁻¹ s⁻¹
B3 | 0.045 | 6e+06 | – | – | – | – | – | – | – | – | – | 4.05 | 3.68 | 0.57 | 3.67 | 0.00027 | 0.00032 | 5.9e+06 | 21.3 | 1.6 | –
B4 | – | 2.1e+06 | – | – | – | – | – | – | – | – | – | 12.9 | 1.16 | 3.4 | 0.61 | 0.00016 | 0.0002 | 2.2e+06 | 42.9 | 0.73 | –
B5 | ≤ 0.0017 | 5.9e+06 | – | – | – | – | – | – | – | – | – | 6.36 | 2.34 | 0.5 | 4.16 | < 2e-05 | < 1e-05 | 6e+06 | 11.1 | 3.07 | fold higher affinity against the STR graft of clone 33-03-G02 (Fc tagged human PDL1): ~2 fold
